Consider 10 molecules from publication PMC5454996.

B1: tetrapeptide LNAE (first half of the cleavage site LNAE80p–T1NAC) (peptide)
peptide: LNAE
B2: tetrapeptide FDLN (first half of the cleavage site FDLN78p–A79pETN) (peptide)
peptide: FDLN
B3: tetrapeptide KYVQ (first half of the cleavage site KYVQ40p–S41pNGG) (peptide)
peptide: KYVQ
B4: tetrapeptide NKSY (first half of the cleavage site NKSY19p–A20pTFE) (peptide)
peptide: NKSY

The first assay addresses recombinant Der p 1 (mature, enzymatically active cysteine protease) (house dust mite) (UniProt P08176). The assay is described as follows: enzyme inhibition kinetics; steady-state velocities of Der p 1 at each propeptide concentration, pH 7, substrate Boc-Gln-Ala-Arg-AMC at 160 µM; KD calculated by Equation (4) because initial and steady-state velocities differed little.
For “Der p 1 propeptide double mutant D51pA/E56pA, full-length (1-80) (domain or fragment)”, the Kd was 130 nM.

The target is the same in the next assay.
Assay: not given
For B1, the reduction of the initial Der p 1 activity (Boc-Gln-Ala-Arg-AMC hydrolysis) by tetrapeptide (10 mM) at pH 4 was determined as 80%.

On to B2, for which the reduction of the initial Der p 1 activity (Boc-Gln-Ala-Arg-AMC hydrolysis) by tetrapeptide (10 mM) at pH 4 came to 75%.

On to B3, for which the reduction of the initial Der p 1 activity (Boc-Gln-Ala-Arg-AMC hydrolysis) by tetrapeptide (10 mM) at pH 4 was found to be 45%.

Consider B4, for which the reduction of the initial Der p 1 activity (Boc-Gln-Ala-Arg-AMC hydrolysis) by tetrapeptide (10 mM) at pH 4 worked out at 30%.

For another assay the target is unchanged. The assay is described as follows: enzyme inhibition kinetics; time-dependent inhibition of Der p 1 (5 nM) by propeptide (30–300 nM) at pH 7, fluorogenic substrate Boc-Gln-Ala-Arg-AMC; pre-steady-state kobs against propeptide concentration by linear regression gives KD Global, kon and koff; simple 1/1 stoichiometry assumed.
In the case of “Der p 1 propeptide mutant Y19pF, full-length (1-80) (domain or fragment)”, the Kd is 6 nM, the koff was determined as 0.007 s⁻¹ and the kon turned out to be 1.2e+06 M⁻¹ s⁻¹.

In the case of “Der p 1 propeptide mutant K17pA, full-length (1-80) (domain or fragment)”, the Kd came out at 15 nM, the dissociation rate constant (koff) came to 0.007 s⁻¹ and the kon stood at 460000 M⁻¹ s⁻¹.

On to “Der p 1 propeptide mutant E56pA, full-length (1-80) (domain or fragment)”, for which the Kd was found to be 5 nM, the koff was 0.007 s⁻¹ and the kon was found to be 1.5e+06 M⁻¹ s⁻¹.

On to “Der p 1 propeptide mutant D51pA, full-length (1-80) (domain or fragment)”, for which the dissociation constant (Kd) came out at 37 nM, the koff amounted to 0.017 s⁻¹ and the kon was 440000 M⁻¹ s⁻¹.

For the molecule “Der p 1 propeptide, wild type, full-length (1-80) (domain or fragment)”, the Kd worked out at 7 nM, the koff was 0.0078 s⁻¹ and the kon came out at 1.1e+06 M⁻¹ s⁻¹.

A word on the Kd: it is the constant that tells how readily two partners part at equilibrium. One may read the koff as the first-order rate constant of dissociation. The kon is the second-order rate constant of association.
